These results are taken from patent CN117886935A (BEIJING KENUO XINCHENG TECH CO LTD, dated 2024).

The target in assay [1] is T1, 人CSF-1R-his重组蛋白 (human CSF-1R-his recombinant protein) (human, UniProt P07333 20-512, limits assumed).
T1 construct: Analyte of the ForteBio assay, 60 nM; also called CD115; M-CSF-R; not shown: His tag
The assay can be described thus: BLI (ForteBio). On the technique in general: Biolayer interferometry detects binding as a change in optical thickness at a sensor tip.

For assay [2], the target named is CSF-1R on CSF-1R/SRE-Luc/HEK293 reporter cells (UniProt P07333 20-972, limits assumed). Nature of the assay: cell-based or functional assay.
Assay [3] has as its target T2, CSF-1R on rhCSF-1R-CHO cells (human, UniProt P07333 20-972).
T2 construct: whole, on cells; also called 细胞表面CSF-1R; CSF-1R-CHO细胞
Nature of the assay: flow cytometry on rhCSF-1R-CHO cells, FITC goat anti-human. In general terms: Flow cytometry measures light scatter and fluorescence of single cells or particles in a stream.

For assay [4], the target named is T3, CSF-1R-mFc (human, UniProt P07333 20-512, limits assumed).
T3 construct: not shown: mouse Fc (mFc)
Nature of the assay: competition ELISA: CSF1-His coated, CSF-1R-mFc 0.15 μg/ml premixed with antibody. On the technique in general: ELISA stands for enzyme-linked immunosorbent assay.

The target of assay [5] is T3, CSF-1R-mFc. The assay can be described thus: competition ELISA: human IL-34 coated, CSF-1R-mFc 0.15 μg/ml premixed with antibody.
The target of assay [6] is T1, 人CSF-1R-his重组蛋白 (human CSF-1R-his …). The assay can be described thus: BLI (ForteBio), antibody on AHC probe, CSF-1R-his 60 nM, 1:1 fit.

T3 sequence (P07333 20-512 limits assumed): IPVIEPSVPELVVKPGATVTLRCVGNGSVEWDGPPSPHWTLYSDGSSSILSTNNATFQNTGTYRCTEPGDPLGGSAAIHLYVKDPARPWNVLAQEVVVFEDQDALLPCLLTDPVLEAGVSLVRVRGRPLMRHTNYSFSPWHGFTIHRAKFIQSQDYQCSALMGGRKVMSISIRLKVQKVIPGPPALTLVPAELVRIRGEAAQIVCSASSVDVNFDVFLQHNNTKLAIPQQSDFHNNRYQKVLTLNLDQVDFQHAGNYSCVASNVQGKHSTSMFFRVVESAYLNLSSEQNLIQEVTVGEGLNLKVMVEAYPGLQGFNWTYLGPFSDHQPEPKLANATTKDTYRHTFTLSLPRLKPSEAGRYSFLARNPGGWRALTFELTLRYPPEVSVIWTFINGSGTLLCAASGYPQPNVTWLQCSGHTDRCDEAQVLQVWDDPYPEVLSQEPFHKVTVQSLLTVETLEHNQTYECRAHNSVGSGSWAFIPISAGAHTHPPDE
T1 sequence (P07333 20-512 limits assumed): as above
Chain of CSF-1R on CSF-1R/SRE-Luc/HEK293 reporter cells (P07333 20-972 limits assumed): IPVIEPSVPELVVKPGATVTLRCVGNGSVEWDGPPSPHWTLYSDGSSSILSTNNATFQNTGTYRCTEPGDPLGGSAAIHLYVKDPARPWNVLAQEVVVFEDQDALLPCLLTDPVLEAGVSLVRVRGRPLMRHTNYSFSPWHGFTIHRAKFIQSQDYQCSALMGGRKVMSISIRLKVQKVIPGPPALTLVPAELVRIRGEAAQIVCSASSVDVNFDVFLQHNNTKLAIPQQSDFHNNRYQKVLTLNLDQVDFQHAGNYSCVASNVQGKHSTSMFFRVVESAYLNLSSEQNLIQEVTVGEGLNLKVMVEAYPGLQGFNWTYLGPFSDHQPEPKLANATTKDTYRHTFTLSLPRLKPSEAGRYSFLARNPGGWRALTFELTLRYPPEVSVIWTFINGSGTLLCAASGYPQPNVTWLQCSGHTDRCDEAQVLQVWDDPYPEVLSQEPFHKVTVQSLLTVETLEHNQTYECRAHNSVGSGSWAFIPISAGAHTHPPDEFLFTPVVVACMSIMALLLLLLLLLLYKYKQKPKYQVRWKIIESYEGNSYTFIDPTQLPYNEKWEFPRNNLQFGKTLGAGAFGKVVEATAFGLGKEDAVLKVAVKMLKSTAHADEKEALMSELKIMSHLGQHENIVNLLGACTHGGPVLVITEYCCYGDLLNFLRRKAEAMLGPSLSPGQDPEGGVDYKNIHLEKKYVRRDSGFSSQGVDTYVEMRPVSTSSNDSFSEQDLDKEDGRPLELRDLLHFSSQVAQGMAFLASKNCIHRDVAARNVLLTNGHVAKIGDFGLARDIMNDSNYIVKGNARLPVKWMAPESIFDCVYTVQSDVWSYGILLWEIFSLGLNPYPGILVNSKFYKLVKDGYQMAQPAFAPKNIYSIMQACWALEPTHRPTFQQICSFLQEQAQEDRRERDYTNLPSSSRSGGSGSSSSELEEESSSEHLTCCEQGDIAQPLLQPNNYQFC
T2 sequence (P07333 20-972): as the sequence (P07333 20-972 limits assumed) above

B1: hz73 (antibody, V domains shown)
VH: EVQLVQSGAEVKKPGASVKVSCKASGYTFTDYNMDWVRQAPGQGLEWMGDIIPNYDSATYNQKFKGRVTMTRDTSTSTVYMELSSLRSEDTAVYYCARKGGGYVNWYFDVWGQGTTVTVSS
VL: DIQMTQSPSSLSASVGDRVTITCHASQNINVWLSWYQQKPGKAPKLLIYKASNLHTGVPSRFSGSGSGTDFTFTISSLQPEDIATYYCQQGESYPYTFGGGTKVEIK
notes: also called 人源化抗体hz73
For orientation: Kd means the concentration at which binding is half-saturated. As usually defined, the koff is a measure of how fast the partners let go of each other. One may read the kon as a measure of how fast the partners come together. For orientation: EC50 means the midpoint of the concentration-response curve. A low value points to a more potent agent. For orientation: IC50 means the concentration that inhibits the measured activity by half. On to B1, for which, in assay [1], the Kd is 0.0605 nM, the koff was found to be 1.3e-05 s⁻¹ and the on-rate (kon) was determined as 215000 M⁻¹ s⁻¹. Also, in assay [2], the “IC50, inhibition of CSF-1-stimulated (7.2 ng/ml) SRE-Luc reporter in CSF-1R/SRE-Luc/HEK293 cells” value is 0.31 µg/mL and the “IC50, inhibition of IL-34-stimulated (85.06 ng/ml) SRE-Luc reporter in CSF-1R/SRE-Luc/HEK293 cells” value came out at 0.8 µg/mL. Besides, the concentration giving a half-maximal response (EC50) in assay [3] stood at 0.196 µg/mL. For the same molecule, the half-inhibitory concentration (IC50) in assay [4] was determined as 0.339 nM. For the same molecule, the IC50 in assay [5] amounted to 0.393 nM.

B2: Cabiralizumab (FPA-008) (antibody, V domains shown)
VH: QVQLVQSGAEVKKPGSSVKVSCKASGYTFTDNYMIWVRQAPGQGLEWMGDINPYNGGTTFNQKFKGRVTITADKSTSTAYMELSSLRSEDTAVYYCARESPYFSNLYVMDYWGQGTLVTVSS
VL: EIVLTQSPATLSLSPGERATLSCKASQSVDYDGDNYMNWYQQKPGQAPRLLIYAASNLESGIPARFSGSGSGTDFTLTISSLEPEDFAVYYCHLSNEDLSTFGGGTKVEIK
notes: Control antibody, synthesised after CN107011438 A; also called Cabirlizumab; 对照抗体
B2: in assay [2], the “IC50, inhibition of CSF-1-stimulated (7.2 ng/ml) SRE-Luc reporter in CSF-1R/SRE-Luc/HEK293 cells” value came out at 0.21 µg/mL and the “IC50, inhibition of IL-34-stimulated (85.06 ng/ml) SRE-Luc reporter in CSF-1R/SRE-Luc/HEK293 cells” value stood at 0.34 µg/mL. Moreover, the EC50 in assay [3] is 0.109 µg/mL. Moreover, in assay [6], the Kd was determined as 2.38 nM, the koff was determined as 0.000228 s⁻¹ and the association rate constant (kon) amounted to 95800 M⁻¹ s⁻¹. For the same molecule, the 50% inhibitory concentration (IC50) in assay [4] stood at 0.3 nM. For the same molecule, the 50% inhibitory concentration (IC50) in assay [5] is ~0.752 nM.
